Measured values taken from patent US20170096493A1 (EISAI R AND D MANAGEMENT, published 2017).

T1: Human Notch4-NRR domain Fc fusion protein (human, UniProt Q99466 1046-1445, limits assumed)
T1 construct: Expressed in a CHO cell line, used from culture supernatant; 1 is named; also called Human Notch4-NRR Fusion Protein; not shown: Fc
T1 sequence: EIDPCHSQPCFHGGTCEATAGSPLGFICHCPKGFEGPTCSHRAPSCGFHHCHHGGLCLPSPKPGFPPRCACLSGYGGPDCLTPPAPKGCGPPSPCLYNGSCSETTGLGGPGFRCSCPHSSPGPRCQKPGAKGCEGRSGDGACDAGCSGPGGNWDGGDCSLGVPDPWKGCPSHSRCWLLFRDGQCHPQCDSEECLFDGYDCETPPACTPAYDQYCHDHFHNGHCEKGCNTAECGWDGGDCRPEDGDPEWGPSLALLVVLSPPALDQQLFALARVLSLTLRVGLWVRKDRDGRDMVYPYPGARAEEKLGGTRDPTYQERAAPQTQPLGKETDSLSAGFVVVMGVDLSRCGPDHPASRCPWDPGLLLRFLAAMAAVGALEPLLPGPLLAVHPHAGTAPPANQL

B1: Mouse anti-human Notch4 monoclonal antibody 6-3-A6 (antibody, V domains shown)
VH: EVQLVESGGGLVQPGGSLKLSCAASGFTFSSYGMSWVRQTPDKRLELVATINSNGGRTYYPDSVKGRFTISRDNAKNTLYLQMSSLKSEDTAMYYCARDQGFAYWGQGTLVTVSA
VL: DIVMTQSHKFMSTSVGDRVSITCKASQDVGTAVAWYQQKPGQSPKLLIYWASTRHTGVPDRFTGSGSGTDFTLTISNVQSEDLADYFCQQYSSYPWTFGGGTKLEIK
notes: Mouse hybridoma antibody; cloned with primers for mouse IgG1 heavy chain and mouse Igκ light chain; also called Original
B2: Antibody C (antibody, human IgG2, kappa)
heavy: EVQLVESGGGLVQPGGSLRLSCAASGFTFSSYGMSWVRQAPGKGLELVSTINSNGGRTYYPDSVKGRFTISRDNSKNTLYLQMGSLRAEDMAVYYCARDQGFAYWGQGTLVTVSSASTKGPSVFPLAPCSRSTSESTAALGCLVKDYFPEPVTVSWNSGALTSGVHTFPAVLQSSGLYSLSSVVTVPSSNFGTQTYTCNVDHKPSNTKVDKTVERKCCVECPPCPAPPAAAPSVFLFPPKPKDTLMISRTPEVTCVVVDVSHEDPEVQFNWYVDGVEVHNAKTKPREEQFNSTFRVVSVLTVVHQDWLNGKEYKCKVSNKGLPAPIEKTISKTKGQPREPQVYTLPPSREEMTKNQVSLTCLVKGFYPSDIAVEWESNGQPENNYKTTPPMLDSDGSFFLYSKLTVDKSRWQQGNVFSCSVMHEALHNHYTQKSLSLSPG
light: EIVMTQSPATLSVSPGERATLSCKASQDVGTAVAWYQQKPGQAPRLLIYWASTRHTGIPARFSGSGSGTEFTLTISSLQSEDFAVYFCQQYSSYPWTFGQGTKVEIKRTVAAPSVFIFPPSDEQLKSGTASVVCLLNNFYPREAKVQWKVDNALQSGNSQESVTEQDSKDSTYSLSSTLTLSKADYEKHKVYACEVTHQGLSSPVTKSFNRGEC
notes: Humanized IgG2 (V234A, G237A)/κ; also called HK2L4 (Lys-); HK2L4(Lys-)
B3: Antibody F (antibody, human IgG2, kappa)
heavy: EVQLVESGGGLVQPGGSLRLSCAASGFTFSSYGMSWVRQAPGKGLELVSTINSNGGRTYYANSVKGRFTISRDNSKNTLYLQMGSLRAEDMAVYYCARDQGFAYWGQGTLVTVSSASTKGPSVFPLAPCSRSTSESTAALGCLVKDYFPEPVTVSWNSGALTSGVHTFPAVLQSSGLYSLSSVVTVPSSNFGTQTYTCNVDHKPSNTKVDKTVERKCCVECPPCPAPPAAAPSVFLFPPKPKDTLMISRTPEVTCVVVDVSHEDPEVQFNWYVDGVEVHNAKTKPREEQFNSTFRVVSVLTVVHQDWLNGKEYKCKVSNKGLPAPIEKTISKTKGQPREPQVYTLPPSREEMTKNQVSLTCLVKGFYPSDIAVEWESNGQPENNYKTTPPMLDSDGSFFLYSKLTVDKSRWQQGNVFSCSVMHEALHNHYTQKSLSLSPG
light: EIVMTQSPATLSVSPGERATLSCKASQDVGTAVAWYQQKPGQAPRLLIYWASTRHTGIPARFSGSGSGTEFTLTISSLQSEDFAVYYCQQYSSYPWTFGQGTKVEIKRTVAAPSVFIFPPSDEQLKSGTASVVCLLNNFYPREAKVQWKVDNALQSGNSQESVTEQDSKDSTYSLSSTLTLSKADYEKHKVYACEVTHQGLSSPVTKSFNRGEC
notes: Humanized IgG2 (V234A, G237A)/κ; also called HA2L3 (Lys-); HA2L3(Lys-)
B4: Antibody A (antibody, human IgG2, kappa)
heavy: EVQLVESGGGLVQPGGSLRLSCAASGFTFSSYGMSWVRQAPGKGLELVSTINSNGGRTYYPDSVKGRFTISRDNSKNTLYLQMGSLRAEDMAVYYCARDQGFAYWGQGTLVTVSSASTKGPSVFPLAPCSRSTSESTAALGCLVKDYFPEPVTVSWNSGALTSGVHTFPAVLQSSGLYSLSSVVTVPSSNFGTQTYTCNVDHKPSNTKVDKTVERKCCVECPPCPAPPAAAPSVFLFPPKPKDTLMISRTPEVTCVVVDVSHEDPEVQFNWYVDGVEVHNAKTKPREEQFNSTFRVVSVLTVVHQDWLNGKEYKCKVSNKGLPAPIEKTISKTKGQPREPQVYTLPPSREEMTKNQVSLTCLVKGFYPSDIAVEWESNGQPENNYKTTPPMLDSDGSFFLYSKLTVDKSRWQQGNVFSCSVMHEALHNHYTQKSLSLSPG
light: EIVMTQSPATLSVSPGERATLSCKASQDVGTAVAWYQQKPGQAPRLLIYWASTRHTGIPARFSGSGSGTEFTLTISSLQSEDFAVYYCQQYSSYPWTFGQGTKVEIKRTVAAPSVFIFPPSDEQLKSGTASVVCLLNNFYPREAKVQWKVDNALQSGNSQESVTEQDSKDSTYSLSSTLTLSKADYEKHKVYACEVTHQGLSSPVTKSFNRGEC
notes: Humanized IgG2 (V234A, G237A)/κ; also called HK2L3 (Lys-); HK2L3(Lys-)
B5: Antibody E (antibody, human IgG2, kappa, V domains shown)
VH: EVQLVESGGGLVQPGGSLRLSCAASGFTFSSYGMSWVRQAPGKGLELVSTINSNGGRTYYPDSVKGRFTISRDNSKNTLYLQMGSLRAEDMAVYYCARDQGFAYWGQGTLVTVSS
VL: EIVMTQSPATLSVSPGERATLSCKASQDVGTAVAWYQQKPGQSPRLLIYWASTRHTGIPARFSGSGSGTEFTLTISSLQSEDFAVYFCQQYSSYPWTFGQGTKVEIKR
notes: Humanized IgG2 (V234A, G237A)/κ; also called HK2L6 (Lys-); HK2L6(Lys-)
B6: Antibody G (antibody, human IgG2, kappa)
heavy: EVQLVESGGGLVQPGGSLRLSCAASGFTFSSYGMSWVRQAPGKGLELVATINSNGGRTYYPDSVKGRFTISRDNSKNTLYLQMGSLKAEDMAVYYCARDQGFAYWGQGTLVTVSSASTKGPSVFPLAPCSRSTSESTAALGCLVKDYFPEPVTVSWNSGALTSGVHTFPAVLQSSGLYSLSSVVTVPSSNFGTQTYTCNVDHKPSNTKVDKTVERKCCVECPPCPAPPAAAPSVFLFPPKPKDTLMISRTPEVTCVVVDVSHEDPEVQFNWYVDGVEVHNAKTKPREEQFNSTFRVVSVLTVVHQDWLNGKEYKCKVSNKGLPAPIEKTISKTKGQPREPQVYTLPPSREEMTKNQVSLTCLVKGFYPSDIAVEWESNGQPENNYKTTPPMLDSDGSFFLYSKLTVDKSRWQQGNVFSCSVMHEALHNHYTQKSLSLSPG
light: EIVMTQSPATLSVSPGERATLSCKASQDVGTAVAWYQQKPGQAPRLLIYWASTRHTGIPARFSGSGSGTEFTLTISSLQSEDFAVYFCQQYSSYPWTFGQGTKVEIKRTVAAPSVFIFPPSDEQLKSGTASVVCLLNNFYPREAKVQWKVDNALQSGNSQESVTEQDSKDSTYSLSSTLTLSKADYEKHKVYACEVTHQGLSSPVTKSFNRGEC
notes: Humanized IgG2 (V234A, G237A)/κ; also called HK3L4 (Lys-); HK3L4(Lys-)
B7: Antibody D (antibody, human IgG2, kappa)
heavy: EVQLVESGGGLVQPGGSLRLSCAASGFTFSSYGMSWVRQAPGKGLELVATINSNGGRTYYPDSVKGRFTISRDNSKNTLYLQMGSLKAEDMAVYYCARDQGFAYWGQGTLVTVSSASTKGPSVFPLAPCSRSTSESTAALGCLVKDYFPEPVTVSWNSGALTSGVHTFPAVLQSSGLYSLSSVVTVPSSNFGTQTYTCNVDHKPSNTKVDKTVERKCCVECPPCPAPPAAAPSVFLFPPKPKDTLMISRTPEVTCVVVDVSHEDPEVQFNWYVDGVEVHNAKTKPREEQFNSTFRVVSVLTVVHQDWLNGKEYKCKVSNKGLPAPIEKTISKTKGQPREPQVYTLPPSREEMTKNQVSLTCLVKGFYPSDIAVEWESNGQPENNYKTTPPMLDSDGSFFLYSKLTVDKSRWQQGNVFSCSVMHEALHNHYTQKSLSLSPG
light: DIQMTQSPSSLSASVGDRVTITCKASQDVGTAVAWYQQKPGKSPKLLIYWASTRHTGVPSRFSGSGSGTDFTLTISSLQPEDVATYFCQQYSSYPWTFGQGTKVEIKRTVAAPSVFIFPPSDEQLKSGTASVVCLLNNFYPREAKVQWKVDNALQSGNSQESVTEQDSKDSTYSLSSTLTLSKADYEKHKVYACEVTHQGLSSPVTKSFNRGEC
notes: Humanized IgG2 (V234A, G237A)/κ; also called HK3L5 (Lys-); HK3L5(Lys-)

Legend:
[1] = target: T1, Human Notch4-NRR domain Fc fusion …; assay: SPR (Biacore) as for Table 30; Notch4-NRR-Fc captured, antibody injected; averaged, N=9
Description: (§1) Kinetic analysis of further anti-Notch4 inhibitory humanized antibodies was carried out as follows. Human Notch4-NRR domain Fc fusion proteins were expressed with a CHO cell line. The antigen in the culture supernatant was captured by the anti-human Notch4 antibody fixed on a CM5 sensor chip that recognizes different epitopes of human Notch4. The humanized anti-human Notch4 antibody was then injected onto the sensor chip at various concentrations. The interaction and disassociation constants thereof were calculated according to manufacturer's instructions.

[2] = target: T1, Human Notch4-NRR domain Fc fusion …; assay: SPR (Biacore) as for Table 30; Notch4-NRR-Fc captured, antibody injected; averaged, N=5
Description: as §1

[3] = target: T1, Human Notch4-NRR domain Fc fusion …; assay: SPR (Biacore); Notch4-NRR-Fc captured by another anti-Notch4 antibody on CM5, antibody injected
Description: as §1

[4] = target: Notch4 with a part of the intracellular domain substituted with GAL4 DNA binding domain, on b.end3 reporter …; assay: cell-based or functional assay
[5] = target: T1, Human Notch4-NRR domain Fc fusion …; assay: SPR (Biacore) as for Table 30; Notch4-NRR-Fc captured, antibody injected; averaged, N=2
Description: as §1

[6] = target: T1, Human Notch4-NRR domain Fc fusion …; assay: SPR (Biacore) as for Table 30; Notch4-NRR-Fc captured, antibody injected; averaged, N=3
Description: as §1

Binder	Kd [1] [nM]	koff [1] [s⁻¹]	kon [1] [M⁻¹ s⁻¹]	Kd [2] [nM]	koff [2] [s⁻¹]	kon [2] [M⁻¹ s⁻¹]	Kd [3] [nM]	koff [3] [s⁻¹]	kon [3] [M⁻¹ s⁻¹]	% of Control (relative luminescence), Notch4-GAL4 luciferase reporter assay, antibody at 10 µg/ml [4]	Kd [5] [nM]	koff [5] [s⁻¹]	kon [5] [M⁻¹ s⁻¹]	Kd [6] [nM]	koff [6] [s⁻¹]	kon [6] [M⁻¹ s⁻¹]
B1	0.321	0.000742	2.35e+06	–	–	–	–	–	–	–	–	–	–	–	–	–
B2	–	–	–	0.715	0.00127	1.81e+06	0.556	0.00106	1.91e+06	-9.9 % of Control	–	–	–	–	–	–
B3	–	–	–	–	–	–	0.982	0.00136	1.55e+06	17 % of Control	0.434	0.000894	3.5e+06	–	–	–
B4	–	–	–	–	–	–	0.555	0.000889	1.62e+06	0.1 % of Control	0.395	0.00124	5.05e+06	–	–	–
B5	–	–	–	–	–	–	0.519	0.00115	2.23e+06	5 % of Control	–	–	–	0.62	0.00115	1.87e+06
B6	–	–	–	0.76	0.00124	1.86e+06	0.633	0.00111	1.78e+06	13 % of Control	–	–	–	–	–	–
B7	–	–	–	0.529	0.00109	2.1e+06	0.475	0.000863	1.82e+06	21 % of Control	–	–	–	–	–	–
